In paper PMC7687889 one finds Kd data, which are given here for two substances.

The test addresses human EphA2 ligand-binding domain (LBD) (human) (UniProt P29317). Nature of the test: SPR. On the technique in general: Surface plasmon resonance follows binding to a sensor surface in real time, without labels.

For orientation: Kd means the equilibrium constant for the complex coming apart. Higher therefore signals lower affinity.

KSHV gHgL (Kaposi sarcoma-associated herpesvirus glycoprotein H / glycoprotein L complex), sequence (F5HAK9 22-698): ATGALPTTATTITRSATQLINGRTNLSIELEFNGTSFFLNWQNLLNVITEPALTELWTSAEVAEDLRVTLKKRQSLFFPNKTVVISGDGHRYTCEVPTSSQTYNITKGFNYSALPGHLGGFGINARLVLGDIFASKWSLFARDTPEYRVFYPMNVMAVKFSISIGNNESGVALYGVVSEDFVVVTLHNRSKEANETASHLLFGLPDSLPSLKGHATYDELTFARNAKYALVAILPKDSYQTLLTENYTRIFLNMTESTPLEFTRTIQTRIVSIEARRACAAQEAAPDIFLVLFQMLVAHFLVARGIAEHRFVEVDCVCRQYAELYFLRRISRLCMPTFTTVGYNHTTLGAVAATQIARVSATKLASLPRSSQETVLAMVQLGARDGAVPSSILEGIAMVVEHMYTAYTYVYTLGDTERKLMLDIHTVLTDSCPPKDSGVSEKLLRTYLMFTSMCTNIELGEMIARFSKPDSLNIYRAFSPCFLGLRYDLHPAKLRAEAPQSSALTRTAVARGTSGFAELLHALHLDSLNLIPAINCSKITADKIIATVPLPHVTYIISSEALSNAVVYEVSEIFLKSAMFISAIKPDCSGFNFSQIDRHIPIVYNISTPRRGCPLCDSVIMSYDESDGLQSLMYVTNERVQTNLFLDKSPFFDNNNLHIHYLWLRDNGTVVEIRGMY
KSHV gHgL (Kaposi sarcoma-associated herpesvirus glycoprotein H / glycoprotein L complex), sequence (F5HDB7 21-167): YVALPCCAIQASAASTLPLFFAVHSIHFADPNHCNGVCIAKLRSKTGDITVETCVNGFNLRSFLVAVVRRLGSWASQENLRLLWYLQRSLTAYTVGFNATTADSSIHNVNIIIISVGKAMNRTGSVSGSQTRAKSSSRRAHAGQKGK
EBV gHgL (Epstein-Barr virus glycoprotein H / glycoprotein L complex), sequence (P03231 18-679): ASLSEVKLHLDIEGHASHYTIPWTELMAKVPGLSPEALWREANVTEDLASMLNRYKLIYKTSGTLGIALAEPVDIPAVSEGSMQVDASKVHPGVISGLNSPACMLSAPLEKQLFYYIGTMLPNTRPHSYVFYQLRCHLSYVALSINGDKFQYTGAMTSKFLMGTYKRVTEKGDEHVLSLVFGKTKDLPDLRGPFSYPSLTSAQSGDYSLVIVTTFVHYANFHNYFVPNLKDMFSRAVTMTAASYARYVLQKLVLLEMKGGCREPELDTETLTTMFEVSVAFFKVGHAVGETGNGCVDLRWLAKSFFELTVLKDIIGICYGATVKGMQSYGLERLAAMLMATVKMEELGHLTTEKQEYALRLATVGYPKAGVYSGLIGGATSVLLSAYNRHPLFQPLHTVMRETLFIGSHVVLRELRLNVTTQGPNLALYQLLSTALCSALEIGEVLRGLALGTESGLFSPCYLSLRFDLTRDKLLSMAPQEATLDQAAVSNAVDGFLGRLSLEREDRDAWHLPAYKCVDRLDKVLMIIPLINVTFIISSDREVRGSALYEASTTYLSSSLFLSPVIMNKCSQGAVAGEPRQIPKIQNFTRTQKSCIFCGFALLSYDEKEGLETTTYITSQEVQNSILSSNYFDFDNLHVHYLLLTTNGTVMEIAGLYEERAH
EBV gHgL (Epstein-Barr virus glycoprotein H / glycoprotein L complex), sequence (P03212 24-137): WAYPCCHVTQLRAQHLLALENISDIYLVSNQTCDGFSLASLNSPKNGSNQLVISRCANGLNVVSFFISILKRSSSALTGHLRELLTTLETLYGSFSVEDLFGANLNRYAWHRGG

Substance “KSHV gHgL (Kaposi sarcoma-associated herpesvirus glycoprotein H / glycoprotein L complex) (from UniProt F5HAK9;F5HDB7)” gave a Kd of 17.5 nM.

Substance “EBV gHgL (Epstein-Barr virus glycoprotein H / glycoprotein L complex) (from UniProt P03231;P03212)” displayed a Kd of 4120 nM.
